Experimental data: patent US20220213181A1 (Novartis, published 2022)

Key:
Experiment in all cases: linear peptide array on glass (JPT)
[1] = biological target: T1, P30 (human)
T1 construct: linear 15-mer from the N-terminal coiled coil domain of human ANGPTL4
T1 peptide: NSRIQQLFHKVAQQQ
Procedure: (§1) The ability of selected antibodies of invention, namely NEG276 and NEG318, to bind to linear 15-amino-acid peptides derived from the N-terminal coiled coil domain of human ANGPTL4 was tested. The peptides were immobilized on a glass surface, and the ability of NEG276 and NEG318 to bind to the immobilized peptides was evaluated using experimental methods optimized for linear peptide epitope mapping at JPT Peptide Technologies (Berlin, Germany).

[2] = biological target: T2, P8 (human)
T2 construct: linear 15-mer from the N-terminal coiled coil domain of human ANGPTL4
T2 peptide: GLLQLGQGLREHAER
Procedure: as §1

[3] = biological target: T3, P40 (human)
T3 construct: linear 15-mer from the N-terminal coiled coil domain of human ANGPTL4
T3 peptide: QFGLLDHKHLDHEVA
Procedure: as §1

[4] = biological target: T4, P22 (human)
T4 construct: linear 15-mer from the N-terminal coiled coil domain of human ANGPTL4
T4 peptide: LPLAPESRVDPEVLH
Procedure: as §1

[5] = biological target: T5, P24 (human)
T5 construct: linear 15-mer from the N-terminal coiled coil domain of human ANGPTL4
T5 peptide: SRVDPEVLHSLQTQL
Procedure: as §1

[6] = biological target: T6, P18 (human)
T6 construct: linear 15-mer from the N-terminal coiled coil domain of human ANGPTL4; printed with Ser where ANGPTL4 has Cys
T6 peptide: GSASQGTEGSTDLPL
Procedure: as §1

[7] = biological target: T7, P20 (human)
T7 construct: linear 15-mer from the N-terminal coiled coil domain of human ANGPTL4
T7 peptide: TEGSTDLPLAPESRV
Procedure: as §1

[8] = biological target: T8, P23 (human)
T8 construct: linear 15-mer from the N-terminal coiled coil domain of human ANGPTL4
T8 peptide: APESRVDPEVLHSLQ
Procedure: as §1

[9] = biological target: T9, P19 (human)
T9 construct: linear 15-mer from the N-terminal coiled coil domain of human ANGPTL4; printed with Ser where ANGPTL4 has Cys
T9 peptide: SQGTEGSTDLPLAPE
Procedure: as §1

[10] = biological target: T10, P27 (human)
T10 construct: linear 15-mer from the N-terminal coiled coil domain of human ANGPTL4
T10 peptide: SLQTQLKAQNSRIQQ
Procedure: as §1

[11] = biological target: T11, P5 (human)
T11 construct: linear 15-mer from the N-terminal coiled coil domain of human ANGPTL4
T11 peptide: WDEMNVLAHGLLQLG
Procedure: as §1

[12] = biological target: T12, P2 (human)
T12 construct: linear 15-mer from the N-terminal coiled coil domain of human ANGPTL4
T12 peptide: QSKSPRFASWDEMNV
Procedure: as §1

[13] = biological target: T13, P29 (human)
T13 construct: linear 15-mer from the N-terminal coiled coil domain of human ANGPTL4
T13 peptide: KAQNSRIQQLFHKVA
Procedure: as §1

[14] = biological target: T14, P12 (human)
T14 construct: linear 15-mer from the N-terminal coiled coil domain of human ANGPTL4
T14 peptide: AERTRSQLSALERRL
Procedure: as §1

[15] = biological target: T15, P15 (human)
T15 construct: linear 15-mer from the N-terminal coiled coil domain of human ANGPTL4; printed with Ser where ANGPTL4 has Cys
T15 peptide: ALERRLSASGSASQG
Procedure: as §1

[16] = biological target: T16, P42 (human)
T16 construct: linear 15-mer from the N-terminal coiled coil domain of human ANGPTL4
T16 peptide: HKHLDHEVAKPARRK
Procedure: as §1

[17] = biological target: T17, P11 (human)
T17 construct: linear 15-mer from the N-terminal coiled coil domain of human ANGPTL4
T17 peptide: REHAERTRSQLSALE
Procedure: as §1

[18] = biological target: T18, P33 (human)
T18 construct: linear 15-mer from the N-terminal coiled coil domain of human ANGPTL4
T18 peptide: KVAQQQRHLEKQHLR
Procedure: as §1

[19] = biological target: T19, P1 (human)
T19 construct: linear 15-mer from the N-terminal coiled coil domain of human ANGPTL4
T19 peptide: GPVQSKSPRFASWDE
Procedure: as §1

[20] = biological target: T20, P14 (human)
T20 construct: linear 15-mer from the N-terminal coiled coil domain of human ANGPTL4; printed with Ser where ANGPTL4 has Cys
T20 peptide: QLSALERRLSASGSA
Procedure: as §1

[21] = biological target: T21, P37 (human)
T21 construct: linear 15-mer from the N-terminal coiled coil domain of human ANGPTL4
T21 peptide: HLRIQHLQSQFGLLD
Procedure: as §1

[22] = biological target: T22, P4 (human)
T22 construct: linear 15-mer from the N-terminal coiled coil domain of human ANGPTL4
T22 peptide: FASWDEMNVLAHGLL
Procedure: as §1

[23] = biological target: T23, P25 (human)
T23 construct: linear 15-mer from the N-terminal coiled coil domain of human ANGPTL4
T23 peptide: DPEVLHSLQTQLKAQ
Procedure: as §1

[24] = biological target: T24, P21 (human)
T24 construct: linear 15-mer from the N-terminal coiled coil domain of human ANGPTL4
T24 peptide: STDLPLAPESRVDPE
Procedure: as §1

[25] = biological target: T25, P13 (human)
T25 construct: linear 15-mer from the N-terminal coiled coil domain of human ANGPTL4; printed with Ser where ANGPTL4 has Cys
T25 peptide: TRSQLSALERRLSAS
Procedure: as §1

[26] = biological target: T26, P7 (human)
T26 construct: linear 15-mer from the N-terminal coiled coil domain of human ANGPTL4
T26 peptide: LAHGLLQLGQGLREH
Procedure: as §1

[27] = biological target: T27, P26 (human)
T27 construct: linear 15-mer from the N-terminal coiled coil domain of human ANGPTL4
T27 peptide: VLHSLQTQLKAQNSR
Procedure: as §1

[28] = biological target: T28, P32 (human)
T28 construct: linear 15-mer from the N-terminal coiled coil domain of human ANGPTL4
T28 peptide: LFHKVAQQQRHLEKQ
Procedure: as §1

[29] = biological target: T29, P43 (human)
T29 construct: linear 15-mer from the N-terminal coiled coil domain of human ANGPTL4
T29 peptide: KHLDHEVAKPARRKR
Procedure: as §1

[30] = biological target: T30, P34 (human)
T30 construct: linear 15-mer from the N-terminal coiled coil domain of human ANGPTL4
T30 peptide: QQQRHLEKQHLRIQH
Procedure: as §1

[31] = biological target: T31, P39 (human)
T31 construct: linear 15-mer from the N-terminal coiled coil domain of human ANGPTL4
T31 peptide: LQSQFGLLDHKHLDH
Procedure: as §1

[32] = biological target: T32, P16 (human)
T32 construct: linear 15-mer from the N-terminal coiled coil domain of human ANGPTL4; printed with Ser where ANGPTL4 has Cys
T32 peptide: RRLSASGSASQGTEG
Procedure: as §1

[33] = biological target: T33, P41 (human)
T33 construct: linear 15-mer from the N-terminal coiled coil domain of human ANGPTL4
T33 peptide: LLDHKHLDHEVAKPA
Procedure: as §1

[34] = biological target: T34, P28 (human)
T34 construct: linear 15-mer from the N-terminal coiled coil domain of human ANGPTL4
T34 peptide: TQLKAQNSRIQQLFH
Procedure: as §1

[35] = biological target: T35, P9 (human)
T35 construct: linear 15-mer from the N-terminal coiled coil domain of human ANGPTL4
T35 peptide: QLGQGLREHAERTRS
Procedure: as §1

[36] = biological target: T36, P17 (human)
T36 construct: linear 15-mer from the N-terminal coiled coil domain of human ANGPTL4; printed with Ser where ANGPTL4 has Cys
T36 peptide: SASGSASQGTEGSTD
Procedure: as §1

[37] = biological target: T37, P3 (human)
T37 construct: linear 15-mer from the N-terminal coiled coil domain of human ANGPTL4
T37 peptide: SPRFASWDEMNVLAH
Procedure: as §1

[38] = biological target: T38, P38 (human)
T38 construct: linear 15-mer from the N-terminal coiled coil domain of human ANGPTL4
T38 peptide: IQHLQSQFGLLDHKH
Procedure: as §1

[39] = biological target: T39, P36 (human)
T39 construct: linear 15-mer from the N-terminal coiled coil domain of human ANGPTL4
T39 peptide: EKQHLRIQHLQSQFG
Procedure: as §1

[40] = biological target: T40, P6 (human)
T40 construct: linear 15-mer from the N-terminal coiled coil domain of human ANGPTL4
T40 peptide: MNVLAHGLLQLGQGL
Procedure: as §1

[41] = biological target: T41, P35 (human)
T41 construct: linear 15-mer from the N-terminal coiled coil domain of human ANGPTL4
T41 peptide: RHLEKQHLRIQHLQS
Procedure: as §1

Measured: binding result

B1: NEG276 (antibody, human IgG1, kappa)
heavy: not shown
light: EIVMTQSPATLSVSPGERATLSCKASQDIGSNLNWLQQKPGQAPRRLIYAVSNRGPGIPARFSGSRSGSEYTLTISSLQSEDFAVYYCLQYASSPWTFGQGTKVEIKRTVAAPSVFIFPPSDEQLKSGTASVVCLLNNFYPREAKVQWKVDNALQSGNSQESVTEQDSKDSTYSLSSTLTLSKADYEKHKVYACEVTHQGLSSPVTKSFNRGEC
notes: humanized, hIgG1/kappa, parental antibody 19C16
no binding: all assays above

B2: NEG318 (antibody, human IgG1, kappa, V domains shown)
VH: QVQLVQSGAEVKKPGASVKVSCKASGYTFTSFWITWVRQAPGQGLEWMGDIYPGGATTNYNEKLQGRVTLTVDTSTSTAYMELRSLRSDDTAVYYCARSPPQVGPFDYWGQGTLVTVSS
VL: DIQMTQSPSSLSASVGDRVTITCQASDYIYHWLAWYQQKPGKAPKLLISGASSLETGVPSRFSGSGSGKDYTFTISSLQPEDIATYYCQQYWSIPWTFGQGTKLEIKR
notes: humanized, hIgG1/kappa, parental antibody 14P18
no binding: all assays above
